# Measured values published in patent US20220175781A1, “CD40L COMPOSITIONS AND METHODS FOR TUNABLE REGULATION” (Obsidian Therapeutics, Inc., priority 2019, published 2022).
# Columns and labels:
# [1] = molecular target: OT-001661 (MH Linker; CD40L; stop) (human) (UniProt P29965); test: cell-based or functional assay
# [2] = molecular target: OT-001668 (Linker (MH); CD40L (aa 1-261 of WT, (S110-G116) del); stop) (human) (UniProt P29965); test: cell-based or functional assay
# [3] = molecular target: OT-001669 (Linker (MH); CD40L (aa 14-261 of WT); stop) (human) (UniProt P29965); test: cell-based or functional assay
# CD40 = CD40 (UniProt P25942); test: cell-based or functional assay
# HEK-Blue™ CD40 cells = test: HEK-Blue CD40 SEAP reporter co-culture with transduced Jurkat cells; format: cell-based; conditions: ligand 24 h (1 μM Shield-1, 50 μM TMP or 1 μM Bazedoxifene), recombinant soluble CD40L as standard
# Method: Jurkat cells transduced with OT-001661, OT-001685, OT-001662, OT-001666, or OT-001667 were co-cultured with HEK-Blue™ CD40 cells (Invivogen, San Diego, Calif.). Cocultures were treated with ligands (1 μM Shield-1, 50 μM TMP, 1 μM Bazedoxifene (BZD) or vehicle control) for 24 hours and the secreted embryonic alkaline phosphatase (SEAP) reporter levels were measured in the media. All vehicle treated samples had background SEAP activity. Recombinant soluble CD40L was used as the standard in the experiments.
# HEK293T cells = test: Soluble CD40L ELISA, transiently transfected HEK293T cells; format: cell-based, human; conditions: HEK293T cells
# Method: Soluble CD40L (sCD40L) constructs OT-001672, OT-001686, OT-001673, OT-001674, OT-001677, and OT-001684 were transiently transfected into HEK293T cells. Cells were treated with one of the following ligands 1 μM Shield-1, 50 μM TMP, 1 μM Bazedoxifene (BZD) or vehicle control.
# The pg/mL levels of soluble CD40L were measured by ELISA (Table 14). Recombinant soluble CD40L was used as the standard in the experiments.
# HEK-Blue CD40 = HEK-Blue CD40 assay with sCD40L constructs; format: cell-based; conditions: ligand treated
# T cells (CD4+ and CD8+) = test: Regulation of CD40L in T cells by different drug responsive domains; format: cell-based
# HEK 293T cells = test: hDHFR regulated CD40L surface expression, HEK 293T cells (flow cytometry); format: cell-based, human; conditions: 50 μM TMP 24 hours
# Method: HEK 293T cells were transiently […] with hDHFR regulated constructs namely OT-001962, OT-001961, OT-001963 for 24 hours. Following transfection, cells were treated with 50 μM TMP for 24 hours and CD40L cell surface expression was measured using flow cytometry. […] CD40L expression in the absence of ligand was virtually undetectable.
# Jurkat cells = test: DHFR regulated CD40L expression, transduced Jurkat cells (flow cytometry); format: cell-based
# Method: Jurkat cells were transduced with lentiviruses corresponding to OT-001662, OT-001962, OT-001961, OT-001963. 24 hours after transduction, cells were split and treated with DMSO or 50 μM TMP for another 24 hours until flow cytometry-based analysis. The results are shown in Table 37 where SR indicates stabilization ration.
# [4] = tested on: T cells (CD4 and CD8 positive); test: TMP dose response of OT-001962, CD40L MFI in CD4 and CD8 positive T cells; format: cell-based
# Method: Dose response with TMP in T cells were conducted for OT-001962. Expression of CD40L was measured at (a) day 4 after transduction, (b) after freezing and thawing the cells or (c) after freezing and thawing the cells followed by restimulation with CD3/CD28 beads.
# CD40, sequence (P25942 21-277 limits assumed): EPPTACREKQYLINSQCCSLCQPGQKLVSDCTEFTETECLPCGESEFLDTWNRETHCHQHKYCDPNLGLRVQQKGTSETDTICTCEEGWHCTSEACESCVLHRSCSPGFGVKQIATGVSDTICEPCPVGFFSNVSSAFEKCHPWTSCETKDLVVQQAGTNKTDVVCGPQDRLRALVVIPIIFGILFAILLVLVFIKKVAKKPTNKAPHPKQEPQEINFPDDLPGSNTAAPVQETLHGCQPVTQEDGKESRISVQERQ
molecule,measurement,setting,value
recombinant human CD40-Fc receptor (from UniProt P25942 21-193) (Fc fusion),"CD40L levels in supernatant (shedding, ELISA) of Jurkat cells cultured 6 hours with 1.25 µg/ml hCD40-Fc; untreated 1382.06",[1],3600
same,"CD40L levels in supernatant (shedding, ELISA) of Jurkat cells cultured 6 hours with 1.25 µg/ml hCD40-Fc; untreated 10",[2],10
same,"CD40L levels in supernatant (shedding, ELISA) of Jurkat cells cultured 6 hours with 1.25 µg/ml hCD40-Fc; untreated 2137.69",[3],8440
"OT-001667 (Met; ER (aa 305-549 of WT, T371A, L384M, M421G, N519S, G521R, Y537S); Histidine; CD40L; stop) (ligand) MSLALSLTADQMVSALLDAEPPILYSEYDPTRPFSEASMMGLLTNLADRELVHMINWAKRVPGFVDLALHDQVHLLECAWMEILMIGLVWRSMEHPGKLLFAPNLLLDRNQGKCVEGGVEIFDMLLATSSRFRMMNLQGEEFVCLKSIILLNSGVYTFLSSTLKSLEEKDHIHRVLDKITDTLIHLMAKAGLTLQQQHQRLAQLLLILSHIRHMSSKRMEHLYSMKCKNVVPLSDLLLEMLDAHRLHMIETYNQTSPRSAATGLPISMKIFMYLLTVFLITQMIGSALFAVYLHRRLDKIEDERNLHEDFVFMKTIQRCNTGERSLSLLNCEEIKSQFEGFVKDIMLNKEETKKENSFEMQKGDQNPQIAAHVISEASSKTTSVLQWAEKGYYTMSNNLVTLENGKQLTVKRQGLYYIYAQVTFCSNREASSQAPFIASLCLKSPGRFERILLRAANTHSSAKPCGQQSIHLGGVFELQPGASVFVNVTDPSQVSHGTGFTSFGLLKL","SEAP reporter of HEK-Blue CD40 cells co-cultured 24 hours with transduced Jurkat cells plus 1 µM Bazedoxifene, given as Soluble CD40L (pg/ml) against a recombinant soluble CD40L standard",CD40,2570 pg/mL
same,Soluble CD40L,HEK-Blue™ CD40 cells,2565.91 pg/mL
OT-001673: Soluble CD40L (sCD40L) construct (protein) GSSGISLIAALAVDYVIGMENAMPWNLPADLAWFKRNTLNKPVIMGRHTWESIGRPLPGRKNIILSSQPGTDDRVTWVKSVDEAIAACGDVPEIMVIGGGRVIEQFLPKAQKLYLTHIDAEVEGDTHFPDYEPDDWESVFSEFHDADAQNSHSYCFEILERRGSMHMQKGDQNPQIAAHVISEASSKTTSVLQWAEKGYYTMSNNLVTLENGKQLTVKRQGLYYIYAQVTFCSNREASSQAPFIASLCLKSPGRFERILLRAANTHSSAKPCGQQSIHLGGVFELQPGASVFVNVTDPSQVSHGTGFTSFGLLKL,ligand dependent regulation of soluble CD40L levels,HEK293T cells; ELISA,ligand dependent regulation
same,functionality in HEK-Blue CD40 assay,HEK-Blue CD40,higher functionality
OT-001672: Soluble CD40L (sCD40L) construct (protein) GSMHMQKGDQNPQIAAHVISEASSKTTSVLQWAEKGYYTMSNNLVTLENGKQLTVKRQGLYYIYAQVTFCSNREASSQAPFIASLCLKSPGRFERILLRAANTHSSAKPCGQQSIHLGGVFELQPGASVFVNVTDPSQVSHGTGFTSFGLLKL,Stabilization Ratio,HEK293T cells; soluble CD40L +Ligand versus Vehicle,3.3
same,functionality in HEK-Blue CD40 assay,HEK-Blue CD40,higher functionality
OT-001962: hDHFR regulated CD40L construct (protein) MVGSLNCIVAVSQNMGIGKNGDLPWPPLRNEFRYFERMTTTSSVEGKQNLVIMGKKTWFSIPEKNRPLKGRINLVLSRELKEPPQGAHFLSRSLDDALKLTEHPELANKVDMVWIVGGSSVIKEAMNHPGHLKLFVTRIMQDFESDTFFPEIDLEKYKLLPEYPGVLSDVQEEKGIKYKFEVYEKNDHMIETYNQTSPRSAATGLPISMKIFMYLLTVFLITQMIGSALFAVYLHRRLDKIEDERNLHEDFVFMKTIQRCNTGERSLSLLNCEEIKSQFEGFVKDIMLNKEETKKENSFEMQKGDQNPQIAAHVISEASSKTTSVLQWAEKGYYTMSNNLVTLENGKQLTVKRQGLYYIYAQVTFCSNREASSQAPFIASLCLKSPGRFERILLRAANTHSSAKPCGQQSIHLGGVFELQPGASVFVNVTDPSQVSHGTGFTSFGLLKL,CD40L positive,"T cells (CD4+ and CD8+); All Cells, 100 uM TMP",71.6%
same,MFI,"T cells (CD4+ and CD8+); All Cells, 100 uM TMP",1109
same,CD40L positive,"T cells (CD4+ and CD8+); All Cells, DMSO",46.5%
same,MFI,"T cells (CD4+ and CD8+); All Cells, DMSO",434
same,CD40L positive,"T cells (CD4+ and CD8+); CD4+, 100 uM TMP",83.5%
same,MFI,"T cells (CD4+ and CD8+); CD4+, 100 uM TMP",1468
same,CD40L positive,"T cells (CD4+ and CD8+); CD4+, DMSO",58.3%
same,MFI,"T cells (CD4+ and CD8+); CD4+, DMSO",548
same,CD40L positive,"T cells (CD4+ and CD8+); CD8+, 100 uM TMP",32.1%
same,MFI,"T cells (CD4+ and CD8+); CD8+, 100 uM TMP",455
same,CD40L positive,"T cells (CD4+ and CD8+); CD8+, DMSO",4.1%
same,MFI,"T cells (CD4+ and CD8+); CD8+, DMSO",157
same,% CD40L,HEK 293T cells,14.3%
same,"stabilization ratio, ranking among the hDHFR constructs",Jurkat cells; 50 μM TMP versus DMSO,highest stabilization ratio
same,TMP dependent regulation,Jurkat cells; 50 μM TMP versus DMSO 24 hours,strong TMP dependent regulation
same,% CD40L expression,Jurkat cells; TMP (50 μM),50%
same,SR,Jurkat cells; TMP (50 μM) versus Vehicle,16.7
same,% CD40L expression,Jurkat cells; Vehicle (DMSO),3%
same,CD40L expression (MFI),"[4]; CD4+, Day 4, TMP 0.1 nM",388
same,CD40L expression (MFI),"[4]; CD4+, Day 4, TMP 1 nM",396
same,CD40L expression (MFI),"[4]; CD4+, Day 4, TMP 10 nM",405
same,CD40L expression (MFI),"[4]; CD4+, Day 4, TMP 100 nM",388
same,CD40L expression (MFI),"[4]; CD4+, Day 4, TMP 1000 nM",480
same,CD40L expression (MFI),"[4]; CD4+, Day 4, TMP 10000 nM",1067
same,CD40L expression (MFI),"[4]; CD4+, Day 4, TMP 100000 nM",5917
same,CD40L expression (MFI),"[4]; CD4+, Post Thaw, TMP 0.1 nM",153
same,CD40L expression (MFI),"[4]; CD4+, Post Thaw, TMP 1 nM",156
same,CD40L expression (MFI),"[4]; CD4+, Post Thaw, TMP 10 nM",158
same,CD40L expression (MFI),"[4]; CD4+, Post Thaw, TMP 100 nM",165
same,CD40L expression (MFI),"[4]; CD4+, Post Thaw, TMP 1000 nM",166
same,CD40L expression (MFI),"[4]; CD4+, Post Thaw, TMP 10000 nM",186
same,CD40L expression (MFI),"[4]; CD4+, Post Thaw, TMP 100000 nM",395
same,CD40L expression (MFI),"[4]; CD4+, Restim, TMP 0.1 nM",631
same,CD40L expression (MFI),"[4]; CD4+, Restim, TMP 1 nM",647
same,CD40L expression (MFI),"[4]; CD4+, Restim, TMP 10 nM",645
same,CD40L expression (MFI),"[4]; CD4+, Restim, TMP 100 nM",644
same,CD40L expression (MFI),"[4]; CD4+, Restim, TMP 1000 nM",737
same,CD40L expression (MFI),"[4]; CD4+, Restim, TMP 10000 nM",1382
same,CD40L expression (MFI),"[4]; CD4+, Restim, TMP 100000 nM",6275
same,CD40L expression (MFI),"[4]; CD8+, Day 4, TMP 0.1 nM",181
same,CD40L expression (MFI),"[4]; CD8+, Day 4, TMP 1 nM",178
same,CD40L expression (MFI),"[4]; CD8+, Day 4, TMP 10 nM",182
same,CD40L expression (MFI),"[4]; CD8+, Day 4, TMP 100 nM",182
same,CD40L expression (MFI),"[4]; CD8+, Day 4, TMP 1000 nM",204
same,CD40L expression (MFI),"[4]; CD8+, Day 4, TMP 10000 nM",393
same,CD40L expression (MFI),"[4]; CD8+, Day 4, TMP 100000 nM",1941
same,CD40L expression (MFI),"[4]; CD8+, Post Thaw, TMP 0.1 nM",111
same,CD40L expression (MFI),"[4]; CD8+, Post Thaw, TMP 1 nM",116
same,CD40L expression (MFI),"[4]; CD8+, Post Thaw, TMP 10 nM",114
same,CD40L expression (MFI),"[4]; CD8+, Post Thaw, TMP 100 nM",117
same,CD40L expression (MFI),"[4]; CD8+, Post Thaw, TMP 1000 nM",118
same,CD40L expression (MFI),"[4]; CD8+, Post Thaw, TMP 10000 nM",129
same,CD40L expression (MFI),"[4]; CD8+, Post Thaw, TMP 100000 nM",236
same,CD40L expression (MFI),"[4]; CD8+, Restim, TMP 0.1 nM",254
same,CD40L expression (MFI),"[4]; CD8+, Restim, TMP 1 nM",257
same,CD40L expression (MFI),"[4]; CD8+, Restim, TMP 10 nM",258
same,CD40L expression (MFI),"[4]; CD8+, Restim, TMP 100 nM",255
same,CD40L expression (MFI),"[4]; CD8+, Restim, TMP 1000 nM",258
same,CD40L expression (MFI),"[4]; CD8+, Restim, TMP 10000 nM",382
same,CD40L expression (MFI),"[4]; CD8+, Restim, TMP 100000 nM",1185
